Each block holds one molecule with its values, some of them ahead of it.
What was measured:
[1] = molecular target: acetylated H4 peptide (1–22 aa) (UniProt P02309); test: ITC; protein (≈50 µM DBD or 2YF‐DBD, ≈20 µM TAF1‐DBD) titrated with H4 peptide (≈1 mM or 0.5 mM) at 25 °C; 100 mM NaCl, 50 mM Tris‐HCl pH 7.5; 19 injections; One Set of Sites model
6xHis‐Rfa1 = molecular target: T1, 6xHis‐Rfa1 (yeast, UniProt P22336 1-621); test: pull-down; GST or GST fusion proteins immobilized on GSH‐sepharose beads, incubated with His‐tagged proteins at 4 °C for 4 h; wash 20 mM Tris–HCl pH 7.4, 200 mM NaCl, 0.5 mM EDTA; Western blot with anti‐His antibody; settings: both partners purified
T1 construct: Rfa1, subunit of Replication Protein A (RPA), yeast; also called RPA (in the text on the truncations); source: E. coli (BL21), pET30a(+)
T1 sequence (P22336 whole entry, the tested form may be a part): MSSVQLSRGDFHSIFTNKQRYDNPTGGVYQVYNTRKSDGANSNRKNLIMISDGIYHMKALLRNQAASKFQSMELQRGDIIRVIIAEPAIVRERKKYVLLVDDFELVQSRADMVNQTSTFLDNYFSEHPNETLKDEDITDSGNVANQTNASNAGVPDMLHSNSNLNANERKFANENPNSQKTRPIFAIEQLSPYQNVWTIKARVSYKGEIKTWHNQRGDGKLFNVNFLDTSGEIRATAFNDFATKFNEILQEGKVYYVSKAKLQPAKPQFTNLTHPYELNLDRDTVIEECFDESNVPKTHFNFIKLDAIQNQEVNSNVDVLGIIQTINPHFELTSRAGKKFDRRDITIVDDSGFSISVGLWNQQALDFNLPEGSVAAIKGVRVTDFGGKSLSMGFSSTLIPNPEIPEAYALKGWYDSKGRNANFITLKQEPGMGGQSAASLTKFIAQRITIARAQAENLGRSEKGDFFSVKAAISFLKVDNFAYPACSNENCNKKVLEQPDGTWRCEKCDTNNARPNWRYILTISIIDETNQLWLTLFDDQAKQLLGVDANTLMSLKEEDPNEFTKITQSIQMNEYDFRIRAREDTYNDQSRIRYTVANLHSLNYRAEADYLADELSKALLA

Molecule: DBD of Bdf1 used for ITC (domain or fragment)
- Kd [1]: 6 µM

Molecule: TAF1‐DBD used for ITC (domain or fragment)
- Kd [1]: 5 µM

Next, values leading:

- binding result (6xHis‐Rfa1): binds
B1: GST‐Bdf1 residues 1–295 (domain or fragment, yeast, UniProt P35817 1-295, looked up)
chain: MTDITPVQNDVDVNGNNVNDDVSSNLKRPIDQGDPSNGLAEEENPANNQLHLKKARLDGDALTSSPAGLAENGIEGATLAANGENGYNATGSGAEDEQQGLKKEEGGQGTKQEDLDENSKQELPMEVPKEPAPAPPPEPDMNNLPQNPIPKHQQKHALLAIKAVKRLKDARPFLQPVDPVKLDIPFYFNYIKRPMDLSTIERKLNVGAYEVPEQITEDFNLMVNNSIKFNGPNAGISQMARNIQASFEKHMLNMPAKDAPPVIAKGRRSSAQEDAPIVIRRAQTHNGRPKRTIHP
notes: source: E. coli (BL21), pGEX4T3; immobilized onto GSH‐sepharose beads

- binding result (6xHis‐Rfa1): binds
B2: GST‐Bdf1 residues 1–317 (domain or fragment, yeast, UniProt P35817 1-317, looked up)
chain: MTDITPVQNDVDVNGNNVNDDVSSNLKRPIDQGDPSNGLAEEENPANNQLHLKKARLDGDALTSSPAGLAENGIEGATLAANGENGYNATGSGAEDEQQGLKKEEGGQGTKQEDLDENSKQELPMEVPKEPAPAPPPEPDMNNLPQNPIPKHQQKHALLAIKAVKRLKDARPFLQPVDPVKLDIPFYFNYIKRPMDLSTIERKLNVGAYEVPEQITEDFNLMVNNSIKFNGPNAGISQMARNIQASFEKHMLNMPAKDAPPVIAKGRRSSAQEDAPIVIRRAQTHNGRPKRTIHPPKSKDIYPYESKKPKSKRLQQA
notes: as for B1

Reference: article PMC8336524, “Yeast Bromodomain Factor 1 and Its Human Homolog TAF1 Play Conserved Roles in Promoting Homologous Recombination” (Advanced Science, 2021)
